Target: T1, DtxR (Corynebacterium diphtheriae, UniProt H2I233 SEQ:1-226)
T1 sequence: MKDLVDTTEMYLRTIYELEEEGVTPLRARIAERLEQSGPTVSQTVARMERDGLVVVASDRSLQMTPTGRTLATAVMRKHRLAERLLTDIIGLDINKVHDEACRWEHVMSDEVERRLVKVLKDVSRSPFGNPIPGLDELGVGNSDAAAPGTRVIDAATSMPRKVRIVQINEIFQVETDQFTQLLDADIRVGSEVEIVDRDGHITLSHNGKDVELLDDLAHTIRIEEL
Assay: EMSA; competed by unlabeled tox DNA, not by nonspecific DNA; 10 mM Tris-OAc pH 7.4, 50 mM KCl, 1 mM EDTA, calf thymus DNA
Details: chain copies: 2 (inferred); label: 32P end

B1: toxO (tox operator) 100 bp fragment (dsDNA)
DNA 1: ATAATTAGGATAGCTTTACCTAATTAT
DNA 2: ATAATTAGGTAAAGCTATCCTAATTAT
- binding result: binds

— patent US20050031645, “Vaccine compositions” (Advanced Microbial Solutions Corporation, published 2005)
